Assay results as given in patent US20220204601A1 (ADEL, published 2022).
Ends that are not written are not given here.

T1: K280-ac protein fragment (human)
T1 construct: also called mAC
T1 peptide: VQIINK(Ac)KLDLSN


Target: T1, K280-ac protein fragment
Assay: ELISA on K280-ac coated at 250 ng/well, HRP anti-human IgG
Protocol: In addition, binding of the K280-ac protein fragment prepared in Preparation Example 1 with the ADEL-Y01h (v01 to v12) antibodies prepared in Preparation Example 2 was measured by ELISA.
First, plates were treated with the K280-ac protein fragment at 250 ng/well and reaction was allowed to proceed at 4° C. overnight. The next day, washing with a washing buffer was performed three times, and then treatment with a primary antibody was performed with 8 concentrations (2 μg, 1 μg, 0.5 μg, 0.25 μg, 0.12 μg, 0.06 μg, 0.03 μg, 0.01 μg). As a secondary antibody, HRP-labeled anti-human IgG antibody was used.

Absorbance at 450nm at 0.01ug/well	Absorbance at 450nm at 0.03ug/well	Absorbance at 450nm at 0.06ug/well	Absorbance at 450nm at 0.12ug/well	Absorbance at 450nm at 0.25ug/well	Absorbance at 450nm at 0.5ug/well	Absorbance at 450nm at 1ug/well	Absorbance at 450nm at 2ug/well	binding result	Binder
0.145	0.398	0.484	1.05	1.19	1.29	1.58	1.41	–	v12 (antibody, V domains shown, also called Y01h01v12; ADEL-Y01h v12 antibody) VH: EVQLVESGGGLVQPGRSLRLSCTVSGDSITSGYWNWFRQAPGKGLEYVGYIRYSGRTYYNPSLKSRFTISRDTSKNIAYLQMNSLKTEDTAVYYCASVYFTYWGQGTLVTVSS VL: EVVLTQSPGTLSLSPGERATLSCKSSQSLLDSDGKTYLNWYQQKPGQSPKRLISLVSKLDSGIPDRFSGSGSGTDFTLTISRLEPEDFAVYYCWQGSHFPYTFGQGTKLEIK
0.0085	0.0225	0.027	0.0345	0.036	0.0395	0.0455	0.048	no binding (tested: 2 ug/well)	v11 (antibody, V domains shown, also called Y01h01v11; ADEL-Y01h v11 antibody) VH: EVQLVESGGGLVQPGRSLRLSCTVSGDSITSGYWNWFRQAPGKGLEYVGYIRYSGRTYYNPSLKSRFTISRDTSKNIAYLQMNSLKTEDTAVYYCASVYFTYWGQGTLVTVSS VL: DVVMTQSPDSLAVSLGERATINCKSSQSLLDSDGKTYLNWYQQKPGQSPKRLISLVSKLDSGVPDRFSGSGSGTDFTLTISSLQAEDVAVYYCWQGSHFPYTFGQGTKLEIK
0.251	0.542	0.75	1.22	1.32	1.45	1.61	1.69	–	ADEL-Y01h v09 antibody (antibody, V domains shown, Humanized antibody; It was detected with anti-human IgG; also called Y01h01v09) VH: EVTLKESGPTLVKPTQTLTLTCTVSGDSITSGYWNWIRQPPGKALEYLAYIRYSGRTYYNPSLKSRLTITRDTSKNQVVLTMTNMDPVDTATYYCASVYFTYWGQGTLVTVSS VL: EVVLTQSPGTLSLSPGERATLSCKSSQSLLDSDGKTYLNWYQQKPGQSPKRLISLVSKLDSGIPDRFSGSGSGTDFTLTISRLEPEDFAVYYCWQGSHFPYTFGQGTKLEIK
0.568	0.997	1.23	1.65	1.64	1.78	1.9	1.87	–	ADEL-Y01h v10 antibody (antibody, V domains shown, Humanized antibody; It was detected with anti-human IgG; also called Y01h01v10) VH: EVQLVESGGGLVQPGRSLRLSCTVSGDSITSGYWNWFRQAPGKGLEYVGYIRYSGRTYYNPSLKSRFTISRDTSKNIAYLQMNSLKTEDTAVYYCASVYFTYWGQGTLVTVSS VL: DVVMTQSPLSLPVTLGQPASISCKSSQSLLDSDGKTYLNWFQQRPGQSPKRLISLVSKLDSGVPDRFSGSGSGTDFTLKISRVEAEDVGVYYCWQGSHFPYTFGQGTKLEIK
0.015	0.041	0.0375	0.0745	0.0855	0.0965	0.179	0.294	–	ADEL-Y01h v08 antibody (antibody, V domains shown, Humanized antibody; It was detected with anti-human IgG; also called Y01h01v08) VH: EVTLKESGPTLVKPTQTLTLTCTVSGDSITSGYWNWIRQPPGKALEYLAYIRYSGRTYYNPSLKSRLTITRDTSKNQVVLTMTNMDPVDTATYYCASVYFTYWGQGTLVTVSS VL: DVVMTQSPDSLAVSLGERATINCKSSQSLLDSDGKTYLNWYQQKPGQSPKRLISLVSKLDSGVPDRFSGSGSGTDFTLTISSLQAEDVAVYYCWQGSHFPYTFGQGTKLEIK

The remaining lines, values behind:

Binder	Absorbance at 450nm at 0.01ug/well	Absorbance at 450nm at 0.03ug/well	Absorbance at 450nm at 0.06ug/well	Absorbance at 450nm at 0.12ug/well	Absorbance at 450nm at 0.25ug/well	Absorbance at 450nm at 0.5ug/well	Absorbance at 450nm at 1ug/well	Absorbance at 450nm at 2ug/well	binding result
ADEL-Y01h v06 antibody (antibody, V domains shown, Humanized antibody; It was detected with anti-human IgG; also called Y01h01v06) VH: EVQLQQSGPGLVKPSQTLSLTCAVSGDSITSGYWNWIRQSPSRGLEWLGYIRYSGRTYYNPSLKSRITINRDTSKNQFSLQLNSVTPEDTAVYYCASVYFTYWGQGTLVTVSS VL: EVVLTQSPGTLSLSPGERATLSCKSSQSLLDSDGKTYLNWYQQKPGQSPKRLISLVSKLDSGIPDRFSGSGSGTDFTLTISRLEPEDFAVYYCWQGSHFPYTFGQGTKLEIK	0.0585	0.114	0.265	0.657	1.09	1.51	1.76	2.05	–
ADEL-Y01h v03 antibody (antibody, V domains shown, Humanized antibody; It was detected with anti-human IgG; also called Y01h01v03) VH: EVQLQESGPGLVKPSQTLSLTCTVSGDSITSGYWNWIRQPPGKGLEYIGYIRYSGRTYYNPSLKSRVTISRDTSKNQFSLKLSSVTAADTAVYYCASVYFTYWGQGTLVTVSS VL: EVVLTQSPGTLSLSPGERATLSCKSSQSLLDSDGKTYLNWYQQKPGQSPKRLISLVSKLDSGIPDRFSGSGSGTDFTLTISRLEPEDFAVYYCWQGSHFPYTFGQGTKLEIK	0.0815	0.17	0.302	0.641	1.06	1.51	1.79	2.06	–
ADEL-Y01h v02 antibody (antibody, V domains shown, Humanized antibody; It was detected with anti-human IgG; also called Y01h01v02) VH: EVQLQESGPGLVKPSQTLSLTCTVSGDSITSGYWNWIRQPPGKGLEYIGYIRYSGRTYYNPSLKSRVTISRDTSKNQFSLKLSSVTAADTAVYYCASVYFTYWGQGTLVTVSS VL: DVVMTQSPDSLAVSLGERATINCKSSQSLLDSDGKTYLNWYQQKPGQSPKRLISLVSKLDSGVPDRFSGSGSGTDFTLTISSLQAEDVAVYYCWQGSHFPYTFGQGTKLEIK	0.103	0.203	0.377	0.805	1.12	1.61	1.83	2.08	–
ADEL-Y01h v05 antibody (antibody, V domains shown, Humanized antibody; It was detected with anti-human IgG; also called Y01h01v05) VH: EVQLQQSGPGLVKPSQTLSLTCAVSGDSITSGYWNWIRQSPSRGLEWLGYIRYSGRTYYNPSLKSRITINRDTSKNQFSLQLNSVTPEDTAVYYCASVYFTYWGQGTLVTVSS VL: DVVMTQSPDSLAVSLGERATINCKSSQSLLDSDGKTYLNWYQQKPGQSPKRLISLVSKLDSGVPDRFSGSGSGTDFTLTISSLQAEDVAVYYCWQGSHFPYTFGQGTKLEIK	0.131	0.224	0.431	0.908	1.3	1.7	1.85	2.06	–
ADEL-Y01h v04 antibody (antibody, V domains shown, Humanized antibody; It was detected with anti-human IgG; also called Y01h01v04) VH: EVQLQQSGPGLVKPSQTLSLTCAVSGDSITSGYWNWIRQSPSRGLEWLGYIRYSGRTYYNPSLKSRITINRDTSKNQFSLQLNSVTPEDTAVYYCASVYFTYWGQGTLVTVSS VL: DVVMTQSPLSLPVTLGQPASISCKSSQSLLDSDGKTYLNWFQQRPGQSPKRLISLVSKLDSGVPDRFSGSGSGTDFTLKISRVEAEDVGVYYCWQGSHFPYTFGQGTKLEIK	0.354	0.537	0.822	1.43	1.74	2.04	2.18	2.32	–
